Results on three molecules are retold here after patent US20200157174A1 (DRAGONFLY THERAPEUTICS, published 2020).

T1: recombinant mouse NKG2D-Fc (mouse; human, UniProt O54709 90-232)
T1 construct: extracellular domain; also called mouse NKG2D-Fc fusion protein; Mouse NKG2D-Fc-biotin; not shown: human IgG1 Fc domain
T1 sequence (looked up): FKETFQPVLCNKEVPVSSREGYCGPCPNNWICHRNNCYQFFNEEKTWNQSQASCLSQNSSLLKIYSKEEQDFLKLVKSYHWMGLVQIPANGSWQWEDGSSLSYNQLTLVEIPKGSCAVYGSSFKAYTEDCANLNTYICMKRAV

T2: recombinant cynomolgus NKG2D-Fc (cynomolgus; human, UniProt P61252 73-216)
T2 construct: extracellular domain; also called cynomolgus NKG2D-Fc fusion protein; not shown: human IgG1 Fc domain
T2 sequence (looked up): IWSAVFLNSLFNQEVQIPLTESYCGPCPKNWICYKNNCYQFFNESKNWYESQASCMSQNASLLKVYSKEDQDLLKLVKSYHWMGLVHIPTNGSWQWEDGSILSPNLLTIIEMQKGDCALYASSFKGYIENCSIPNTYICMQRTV

T3: recombinant human NKG2D-Fc (human, UniProt P26718 73-216)
T3 construct: extracellular domain; also called human NKG2D-Fc fusion protein; NKG2D-Fc-biotin; not shown: human IgG1 Fc domain
T3 sequence (looked up): T2 sequence (looked up) with N43D, I133T

B1: ADI-27727 (antibody, V domains shown)
VH: QVQLVQSGAEVKKPGSSVKVSCKASGGTFSSYAISWVRQAPGQGLEWMGGIIPIFGTANYAQKFQGRVTITADESTSTAYMELSSLRSEDTAVYYCARGDSSIRHAYYYYGMDVWGQGTTVTVSS
VL: not shown
B2: ADI-29378 (antibody, V domains shown)
VH: QVQLVQSGAEVKKPGASVKVSCKASGYTFTSYYMHWVRQAPGQGLEWMGIINPSGGSTSYAQKFQGRVTMTRDTSTSTVYMELSSLRSEDTAVYYCAREGAGFAYGMDYYYMDVWGKGTTVTVSS
VL: EIVLTQSPATLSLSPGERATLSCRASQSVSSYLAWYQQKPGQAPRLLIYDASNRATGIPARFSGSGSGTDFTLTISSLEPEDFAVYYCQQSDNWPFTFGGGTKVEIK
notes: also called E78
B3: ADI-27749 (antibody, V domains shown)
VH: EVQLVESGGGLVKPGGSLRLSCAASGFTFSSYSMNWVRQAPGKGLEWVSSISSSSSYIYYADSVKGRFTISRDNAKNSLYLQMNSLRAEDTAVYYCARGAPMGAAAGWFDPWGQGTLVTVSS
VL: DIQMTQSPSSVSASVGDRVTITCRASQGISSWLAWYQQKPGKAPKLLIYAASSLQSGVPSRFSGSGSGTDFTLTISSLQPEDFATYYCQQGVSFPRTFGGGTKVEIK
notes: also called A49

Where a chain is given by its changes, count along the chain named.

The first assay deals with T1, recombinant mouse NKG2D-Fc. As to the kind of experiment: ELISA on coated NKG2D-Fc.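 Note: titrated NKG2D-binding domains on plate-bound human, mouse or cynomolgus NKG2D ectodomain–human IgG1 Fc fusions, detected with HRP anti-human kappa secondary and TMB, absorbance at 450 nm corrected at 540 nm.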
Source text: (§1) After purification, NKG2D-Fc fusion proteins were adsorbed to wells of microplates. After blocking the wells with bovine serum albumin to prevent non-specific binding, NKG2D-binding domains were titrated and added to the wells pre-adsorbed with NKG2D-Fc fusion proteins. Primary antibody binding was detected using a secondary antibody which was conjugated to horseradish peroxidase and specifically recognizes a human kappa light chain to avoid Fc cross-reactivity. 3,3′,5,5′-Tetramethylbenzidine (TMB), a substrate for horseradish peroxidase, was added to the wells to visualize the binding signal, whose absorbance was measured at 450 nm and corrected at 540 nM.
Take B1: the binding result was “binds”.

B2: the binding result was “binds”.

For B3, the binding result is recorded as “binds”.

Another assay has as its target T2, recombinant cynomolgus NKG2D-Fc. As to the kind of experiment: ELISA on coated NKG2D-Fc.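 Note: titrated NKG2D-binding domains on plate-bound human, mouse or cynomolgus NKG2D ectodomain–human IgG1 Fc fusions, detected with HRP anti-human kappa secondary and TMB, absorbance at 450 nm corrected at 540 nm.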 On the technique in general: ELISA stands for enzyme-linked immunosorbent assay.
Source text: as §1
Turning to B1, the binding result was “binds”.

As for B2, the binding result is “binds”.

Turning to B3, the binding result is “binds”.

For the next assay, the target named is T3, recombinant human NKG2D-Fc. The assay can be described thus: ELISA on coated NKG2D-Fc.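 Note: titrated NKG2D-binding domains on plate-bound human, mouse or cynomolgus NKG2D ectodomain–human IgG1 Fc fusions, detected with HRP anti-human kappa secondary and TMB, absorbance at 450 nm corrected at 540 nm.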
Source text: as §1
Take B1: the binding result is recorded as “binds”.

As for B2, the binding result is given as “binds”.

As to B3, the binding result is recorded as “binds”.
